Data set [1] addresses T1, hZFY full-length (13-finger construct) (human, UniProt P08048 408-768).
T1 sequence: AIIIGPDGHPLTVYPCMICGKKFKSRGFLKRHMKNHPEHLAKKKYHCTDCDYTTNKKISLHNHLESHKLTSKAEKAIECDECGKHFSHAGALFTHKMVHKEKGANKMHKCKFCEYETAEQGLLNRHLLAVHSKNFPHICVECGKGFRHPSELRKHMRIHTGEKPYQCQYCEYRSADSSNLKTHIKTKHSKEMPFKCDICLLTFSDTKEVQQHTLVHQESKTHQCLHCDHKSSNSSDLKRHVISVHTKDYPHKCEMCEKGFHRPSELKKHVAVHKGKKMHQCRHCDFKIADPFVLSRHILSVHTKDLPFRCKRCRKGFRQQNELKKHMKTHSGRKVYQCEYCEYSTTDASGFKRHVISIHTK
As to the kind of experiment: fluorescence anisotropy dissociation. (In fluorescence polarisation assays a small probe gives low polarisation when free and higher when bound to something large.)

In data set [2] the target is T1, hZFY full-length (13-finger construct). The experiment in a line: fluorescence anisotropy dissociation. This is another data set of the same source.

B1: S.S.N. FAM probe (dsDNA)
DNA 1: ACCTGGCCTAGTCGTTGCCCAGAT
DNA 2: ATCTGGGCAACGACTAGGCCAGGT
As for B1, in data set [1], the binding signal is ~2 fold shorter lifetime than SSS.

B2: S.S.S. (long) FAM probe (dsDNA)
DNA 1: ACCTGGCCTAGTCGTTTTTGAGATCTTCATCAATTGCCGCATC
DNA 2: GATGCGGCAATTGATGAAGATCTCAAAAACGACTAGGCCAGGT
Turning to B2, in data set [2], the binding result is “binds”.
